Source: patent US20240228562A1, “NOVEL LIPOCALIN MUTEINS SPECIFIC FOR CONNECTIVE TISSUE GROWTH FACTOR (CTGF)” (PIERIS PHARMACEUTICALS GMBH, priority 2021, published 2024)
Substitutions are numbered along the chain they refer to.

T1: Rat CTGF (Rattus norvegicus, UniProt Q9R1E9)
T1 construct: purchased R&D Systems
T1 sequence (Q9R1E9 25-347): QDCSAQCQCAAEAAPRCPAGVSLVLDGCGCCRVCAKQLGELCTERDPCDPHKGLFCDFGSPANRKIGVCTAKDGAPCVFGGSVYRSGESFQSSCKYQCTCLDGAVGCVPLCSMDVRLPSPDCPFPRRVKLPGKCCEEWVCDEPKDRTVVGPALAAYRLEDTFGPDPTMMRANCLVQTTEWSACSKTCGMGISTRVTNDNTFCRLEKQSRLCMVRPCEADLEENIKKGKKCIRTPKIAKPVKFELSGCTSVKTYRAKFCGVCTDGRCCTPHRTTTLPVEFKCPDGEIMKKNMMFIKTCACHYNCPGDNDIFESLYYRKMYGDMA

T2: huWISP-2 (Homo sapiens, UniProt O76076)
T2 sequence (O76076 24-250): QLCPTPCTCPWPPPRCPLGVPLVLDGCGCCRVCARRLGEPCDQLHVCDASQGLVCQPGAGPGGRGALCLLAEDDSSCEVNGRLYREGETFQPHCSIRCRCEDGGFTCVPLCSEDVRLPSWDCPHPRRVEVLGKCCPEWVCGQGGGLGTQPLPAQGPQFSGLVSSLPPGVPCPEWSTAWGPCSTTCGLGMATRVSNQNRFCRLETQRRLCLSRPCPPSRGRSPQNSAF

T3: huWISP-3 (Homo sapiens, UniProt O95389)
T3 sequence (O95389 24-354): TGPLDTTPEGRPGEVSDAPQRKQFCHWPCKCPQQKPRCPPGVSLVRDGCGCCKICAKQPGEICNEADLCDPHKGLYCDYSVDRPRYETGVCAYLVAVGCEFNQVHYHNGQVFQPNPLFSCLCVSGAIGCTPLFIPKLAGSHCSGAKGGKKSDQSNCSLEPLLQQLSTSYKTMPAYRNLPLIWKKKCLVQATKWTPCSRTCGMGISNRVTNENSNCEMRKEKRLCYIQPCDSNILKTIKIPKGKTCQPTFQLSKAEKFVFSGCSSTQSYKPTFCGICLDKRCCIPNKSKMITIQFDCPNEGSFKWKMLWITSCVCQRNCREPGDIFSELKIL

B1: SEQ ID NO: 3: parent CTGF-binding hNGAL lipocalin mutein (protein)
chain: QDSTSDLIPAPPLSKVPLQQNFQDNQFHGKWYVVGRAGNNRLREDKDPPKMWATIYELKEDKSYNVTHVHFMTKKCRYIIDTFVPGSQPGEFTLGAIKSGPGMTSPLVRIVSTNYNQHAMVFFKWVNQNREWFTITLYGRTKELTSELKENFIRFSKSLGLPENHIVFPVPIDQCIDG
modifications: lipocalin mutein
B2: SEQ ID NO: 23: optimized CTGF-binding hNGAL lipocalin mutein (protein)
chain: QDSTSDLIPAPPLSKVPLQQNFQDNQFQGKWYVVGVAGNAILRPDKQPAKMFATIYELKEDKSYDVTSVRFEAKSCKYTIKTFVPGSQPGEFTSGQIKSAPGQTSTLVRVVSTNYNQHAMVFFKHVSQNREIFVITLYGRTKELTSELKENFIRFSKSLGLPENHIVFPVPIDQCIDG
modifications: lipocalin mutein
B3: SEQ ID NO: 15: optimized CTGF-binding hNGAL lipocalin mutein (protein)
chain: B2 chain with V36L, P44E, S94A, Q96Y, S127T
modifications: lipocalin mutein
B4: SEQ ID NO: 9: parent CTGF-binding hNGAL lipocalin mutein (protein)
chain: B2 chain with Q28H, V36L, A40K, P44I, K74R, K77S, S94A, Q96N, I132T
modifications: lipocalin mutein
B5: SEQ ID NO: 25: parent CTGF-binding hNGAL lipocalin mutein (protein)
chain: QDSTSDLIPAPPLSKVPLQQNFQDNQFHGKWYVVGMAGNFRLREDKDPSKMGATIYELKEDKSYNVTQVQFDDKKCLYVIETFVPGSQPGEFTLGAIKSFPGFTSQLVRVVSTNYNQHAMVFFKKVYQNREVFWITLYGRTKELTSELKENFIRFSKSLGLPENHIVFPVPIDQCIDG
modifications: lipocalin mutein
B6: SEQ ID NO: 7: parent CTGF-binding hNGAL lipocalin mutein (protein)
chain: QDSTSDLIPAPPLSKVPLQQNFQDNQFHGKWYVVGLAGNYGLRTDKRPSKMFATIYELKEDKSYDVTSVRFEQERCHYTIRTFVPGSQPGEFTTGSIKSRPGQTSSLVRVVSTNYNQHAMVFFKSVIQNREYFAITLYGRTKELTSELKENFIRFSKSLGLPENHIVFPVPIDQCIDG
modifications: lipocalin mutein
B7: SEQ ID NO: 29: parent CTGF-binding hNGAL lipocalin mutein (protein)
chain: QDSTSDLIPAPPLSKVPLQQNFQDNQFHGKWYVVGWAGNIKLREDKDPFKMSATIYELKEDKSYNVTEVVFEQKKCHYIIKTFVPGSQPGEFTLGDIKSPPGETSSLVRVVSTNYNQHAMVFFKKVFQNREFFWITLYGRTKELTSELKENFIRFSKSLGLPENHIVFPVPIDQCIDG
modifications: lipocalin mutein
B8: SEQ ID NO: 74: fusion protein comprising two CTGF-binding lipocalin muteins (protein)
chain: QDSTSDLIPAPPLSKVPLQQNFQDNQFQGKWYVVGLAGNAILREDKQPAKMFATIYELKEDKSYDVTSVRFEAKSCKYTIKTFVPGSQPGEFTAGYIKSAPGQTSTLVRVVSTNYNQHAMVFFKHVTQNREIFVITLYGRTKELTSELKENFIRFSKSLGLPENHIVFPVPIDQCIDGGGGGSGGGGSGGGGSQDSTSDLIPAPPLSKVPLQQNFQDNQFQGKWYVVGWAGNVKLREDKQPQKMSATIYELKEDKSYDVTEVVFEQKKCHYIIKTFVPGSQPGEFTAGDIKSPPGYTSSLVRVVSTNYNQHAMVFFKKVSQNREFFWITLYGRTKELTSELKENFIRFSKSLGLPENHIVFPVPIDQCIDG
modifications: fusion protein

Target: T4, human CTGF (Homo sapiens, UniProt P29279)
T4 construct: purchased Creative Biomart
T4 sequence (P29279 with tags, fused parts or gaps H83D): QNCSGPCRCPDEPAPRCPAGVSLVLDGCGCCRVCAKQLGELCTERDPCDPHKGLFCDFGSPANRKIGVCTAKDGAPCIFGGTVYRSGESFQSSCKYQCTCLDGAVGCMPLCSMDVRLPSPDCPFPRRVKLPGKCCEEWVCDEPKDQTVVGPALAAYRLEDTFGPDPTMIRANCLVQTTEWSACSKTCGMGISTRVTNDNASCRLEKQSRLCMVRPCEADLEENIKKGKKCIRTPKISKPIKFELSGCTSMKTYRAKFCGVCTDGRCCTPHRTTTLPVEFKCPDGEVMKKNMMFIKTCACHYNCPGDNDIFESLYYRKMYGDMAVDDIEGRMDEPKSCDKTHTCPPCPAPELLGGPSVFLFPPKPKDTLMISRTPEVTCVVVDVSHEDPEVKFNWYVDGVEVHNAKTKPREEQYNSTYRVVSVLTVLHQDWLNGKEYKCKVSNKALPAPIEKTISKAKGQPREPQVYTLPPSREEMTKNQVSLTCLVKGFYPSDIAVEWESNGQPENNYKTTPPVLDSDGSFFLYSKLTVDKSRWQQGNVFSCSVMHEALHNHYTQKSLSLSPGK
Test: SPR binding kinetics and affinity, human CTGF
Conditions: 25° C., 1:1 binding model
How it was run: (§1)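 Biacore SPR at 25 °C; CTGF either Fc-captured via anti-human IgG (HBS-EP+) or amine-coupled to CM5 (300–1100 RU). Muteins injected 180 s contact, 900–3600 s dissociation, 30 μL/min.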

human CTGF koff | Molecule
0.00749 s⁻¹ | B1
9.42e-06 s⁻¹ | B2
4.47e-05 s⁻¹ | B3
0.00102 s⁻¹ | B4
0.000248 s⁻¹ | B5
0.00587 s⁻¹ | B6
0.00112 s⁻¹ | B7

Target: T5, human CTGF (Homo sapiens, UniProt P29279, H83D)
T5 construct: purchased Creative Biomart
T5 sequence (P29279 with tags, fused parts or gaps H83D): as above
Test: SPR binding kinetics and affinity, human CTGF
Conditions: 25° C., 1:1 binding model
How it was run: as §1

Kd | human CTGF kon | Molecule
37.5 nM | 200000 M⁻¹ s⁻¹ | B1
– | 122000 M⁻¹ s⁻¹ | B2
– | 81700 M⁻¹ s⁻¹ | B3
12.8 nM | 79800 M⁻¹ s⁻¹ | B4
9.27 nM | 26800 M⁻¹ s⁻¹ | B5
60.2 nM | 97600 M⁻¹ s⁻¹ | B6
11.2 nM | 100000 M⁻¹ s⁻¹ | B7

Target: T1, Rat CTGF
Test: SPR binding kinetics and affinity, rat CTGF
Conditions: 25° C., 1:1 binding model
How it was run: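 Targets either amine-coupled to CM5 chip (300–1100 RU; Fc-tagged human, untagged rat/murine) or Fc-captured via anti-human IgG; muteins injected 180 s contact, 900–3600 s dissociation, 30 μL/min, 25° C. Double-referenced sensorgrams fit to 1:1 model giving kon, koff and KD.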

Kd | Rat CTGF koff | Rat CTGF kon | Molecule
39.3 nM | 0.0117 s⁻¹ | 297000 M⁻¹ s⁻¹ | B1
– | 0.000114 s⁻¹ | 120000 M⁻¹ s⁻¹ | B3
16 nM | 0.00169 s⁻¹ | 105000 M⁻¹ s⁻¹ | B4
27.7 nM | 0.00129 s⁻¹ | 46500 M⁻¹ s⁻¹ | B5
62.8 nM | 0.00754 s⁻¹ | 120000 M⁻¹ s⁻¹ | B6
18 nM | 0.00317 s⁻¹ | 176000 M⁻¹ s⁻¹ | B7

Target: T2, huWISP-2
Test: Specificity ELISA (CCN proteins), huWISP-2
Type: binding
Conditions: coated 1 μg/ml; assessed when human CTGF signal approached saturation
Experimental: (§2) Binding of muteins to closely related proteins of CTGF was tested by an ELISA assay. In detail, a 384-well plate suitable for fluorescence measurements (Greiner FLUOTRAC™ 600, black flat bottom, high-binding) was coated with 20 μl of human CTGF or the other members of the CCN protein family at a concentration of 1 μg/ml in PBS over night at 4° C. After washing with PBS with 0.05% Tween 20, wells were blocked with 100 μl blocking buffer containing 0.1% Tween 20 and 2% BSA (PBS-T/BSA) for 1 h at room temperature. 20 μl of serially diluted muteins starting at 1000 nM were incubated in PBS-T/BSA for 1 h at room temperature (RT).
(§3) The residual supernatants were discarded and 20 μl HRP-labeled anti-NGAL or anti-Strep-Tag antibody was added at a predetermined optimal concentration in PBS-T/BSA and incubated for 1 h at RT. After washing, 20 μl fluorogenic HRP substrate (QuantaBlu, Thermo) was added to each well, and the reaction was allowed to proceed for 2 to 60 minutes. The fluorescence intensity of every well on the plate was read using a fluorescence microplate reader (Tecan). When the signal for human CTGF approached saturation, the cross reactivity to the other proteins was assessed.

ELISA binding to huWISP-2 | Molecule
No binding | B8
No binding | B1
No binding | B2
No binding | B3
No binding | B4
No binding | B5
No binding | B6
No binding | B7

Target: T3, huWISP-3
Test: Specificity ELISA (CCN proteins), huWISP-3
Type: binding
Conditions: coated 1 μg/ml; assessed when human CTGF signal approached saturation
Experimental: as §2, §3

ELISA binding to huWISP-3 | Molecule
No binding | B8
No binding | B1
No binding | B2
No binding | B3
No binding | B4
No binding | B5
No binding | B6
No binding | B7
